Results taken from publication PMC4528141, “Generating a Metal-responsive Transcriptional Regulator to Test What Confers Metal Sensing in Cells*”.

Target: T1, FrmR (Salmonella enterica serovar Typhimurium …, UniProt A0A719I766 1-91)
T1 sequence: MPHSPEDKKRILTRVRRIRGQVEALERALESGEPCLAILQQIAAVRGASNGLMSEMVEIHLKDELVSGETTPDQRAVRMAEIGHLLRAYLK
Test: fluorescence anisotropy; apo, 5 mM EDTA; 10 nM DNA; 2 tetramers:DNA, equal affinity; 10 mM HEPES pH 7.0, 60 mM NaCl, 240 mM KCl, 25 C, anaerobic; 5 mM EDTA (apo) or ZnCl2 (5 uM in text, 20 uM in Table 2)
Settings: protein: recombinant; tags: none stated (pET29a NdeI; reverse primer carries native stop); chain copies: 8; label: 5' HEX on strand 1; blunt

B1: frmRAPro (dsDNA)
DNA 1: TTCTGATAGTATACCCCCCTATAGTATATGGAG
DNA 2: CTCCATATACTATAGGGGGGTATACTATCAGAA
Kd: 99.4 nM
